# Reference: patent publication US8242083B2, “Kinase substrates” (PerkinElmer Health Sciences, Inc., priority 2008, dated 2012)
# How the values were obtained:
# Format in all cases: biochemical
# Settings in all cases: Kinase Concentration 0.25 nM; 50 nM ULight-labeled substrate, 200 micromolar ATP, 2 hours
# EphA8 = target: T1, EphA8 (Homo sapiens, UniProt P29322); test: TR-FRET kinase assay, EphA8
# T1 sequence (P29322 28-1005): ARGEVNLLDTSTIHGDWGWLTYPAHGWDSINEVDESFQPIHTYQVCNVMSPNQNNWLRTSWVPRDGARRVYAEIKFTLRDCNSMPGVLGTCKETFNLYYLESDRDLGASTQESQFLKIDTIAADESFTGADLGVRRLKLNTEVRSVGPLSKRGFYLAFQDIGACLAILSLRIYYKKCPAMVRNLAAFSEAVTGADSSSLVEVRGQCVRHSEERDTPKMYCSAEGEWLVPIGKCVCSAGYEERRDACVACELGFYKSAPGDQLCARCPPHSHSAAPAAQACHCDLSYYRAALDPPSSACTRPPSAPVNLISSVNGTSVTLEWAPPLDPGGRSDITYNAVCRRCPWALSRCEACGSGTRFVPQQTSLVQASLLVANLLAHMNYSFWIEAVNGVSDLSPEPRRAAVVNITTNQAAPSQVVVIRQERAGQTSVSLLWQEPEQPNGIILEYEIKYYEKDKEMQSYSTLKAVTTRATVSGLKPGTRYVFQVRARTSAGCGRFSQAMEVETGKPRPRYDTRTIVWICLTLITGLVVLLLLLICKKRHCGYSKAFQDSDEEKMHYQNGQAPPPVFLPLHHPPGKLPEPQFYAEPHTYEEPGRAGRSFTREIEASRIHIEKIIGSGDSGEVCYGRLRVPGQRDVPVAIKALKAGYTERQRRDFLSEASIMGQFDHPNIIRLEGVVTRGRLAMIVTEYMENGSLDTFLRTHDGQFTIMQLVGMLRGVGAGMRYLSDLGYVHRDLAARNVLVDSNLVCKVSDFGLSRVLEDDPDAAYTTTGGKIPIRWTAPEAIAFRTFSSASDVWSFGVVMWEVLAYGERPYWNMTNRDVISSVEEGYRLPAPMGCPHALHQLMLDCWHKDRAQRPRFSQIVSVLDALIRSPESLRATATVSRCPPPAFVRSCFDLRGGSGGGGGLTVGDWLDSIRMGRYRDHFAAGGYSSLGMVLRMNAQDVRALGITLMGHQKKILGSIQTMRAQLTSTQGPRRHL
# Protocol: (§1) TR-FRET kinase assays are performed under standardized conditions: various individual kinases are incubated with 50 nM of kinase substrate BRB1 labeled with the TR-FRET acceptor dye ULight (PerkinElmer) and 200 micromolar ATP in 10 μL of kinase assay buffer (50 mM HEPES pH7.5, 10 mM MgCl2, 3 mM MnCl2, 1 mM EGTA, 2 mM DTT and 0.01% Tween-20) for 2 hours at room temperature. Reactions are stopped with EDTA, and anti-phospho-tyrosine antibodies (clone PT66) labeled with the TR-FRET europium chelate donor dye are added to a final concentration of 2 nM in a final volume of 20 μL. The TR-FRET signal emitted at 665 nm is read one hour after the addition of antibodies using a TR-FRET plate reader such as the Envision® Multilabel Plate reader (PerkinElmer). The emitted signal at 665 nm is proportional to the extent of peptide phosphorylation, Control reactions indicative of background are performed excluding ATP from the reaction.
# (§2) Assay conditions are identical to those used described for FIG. 1.
# FLT4 = FLT4 (Homo sapiens, UniProt P35916); test: TR-FRET kinase assay, FLT4
# Chain of FLT4 (P35916 25-1363, species assumed): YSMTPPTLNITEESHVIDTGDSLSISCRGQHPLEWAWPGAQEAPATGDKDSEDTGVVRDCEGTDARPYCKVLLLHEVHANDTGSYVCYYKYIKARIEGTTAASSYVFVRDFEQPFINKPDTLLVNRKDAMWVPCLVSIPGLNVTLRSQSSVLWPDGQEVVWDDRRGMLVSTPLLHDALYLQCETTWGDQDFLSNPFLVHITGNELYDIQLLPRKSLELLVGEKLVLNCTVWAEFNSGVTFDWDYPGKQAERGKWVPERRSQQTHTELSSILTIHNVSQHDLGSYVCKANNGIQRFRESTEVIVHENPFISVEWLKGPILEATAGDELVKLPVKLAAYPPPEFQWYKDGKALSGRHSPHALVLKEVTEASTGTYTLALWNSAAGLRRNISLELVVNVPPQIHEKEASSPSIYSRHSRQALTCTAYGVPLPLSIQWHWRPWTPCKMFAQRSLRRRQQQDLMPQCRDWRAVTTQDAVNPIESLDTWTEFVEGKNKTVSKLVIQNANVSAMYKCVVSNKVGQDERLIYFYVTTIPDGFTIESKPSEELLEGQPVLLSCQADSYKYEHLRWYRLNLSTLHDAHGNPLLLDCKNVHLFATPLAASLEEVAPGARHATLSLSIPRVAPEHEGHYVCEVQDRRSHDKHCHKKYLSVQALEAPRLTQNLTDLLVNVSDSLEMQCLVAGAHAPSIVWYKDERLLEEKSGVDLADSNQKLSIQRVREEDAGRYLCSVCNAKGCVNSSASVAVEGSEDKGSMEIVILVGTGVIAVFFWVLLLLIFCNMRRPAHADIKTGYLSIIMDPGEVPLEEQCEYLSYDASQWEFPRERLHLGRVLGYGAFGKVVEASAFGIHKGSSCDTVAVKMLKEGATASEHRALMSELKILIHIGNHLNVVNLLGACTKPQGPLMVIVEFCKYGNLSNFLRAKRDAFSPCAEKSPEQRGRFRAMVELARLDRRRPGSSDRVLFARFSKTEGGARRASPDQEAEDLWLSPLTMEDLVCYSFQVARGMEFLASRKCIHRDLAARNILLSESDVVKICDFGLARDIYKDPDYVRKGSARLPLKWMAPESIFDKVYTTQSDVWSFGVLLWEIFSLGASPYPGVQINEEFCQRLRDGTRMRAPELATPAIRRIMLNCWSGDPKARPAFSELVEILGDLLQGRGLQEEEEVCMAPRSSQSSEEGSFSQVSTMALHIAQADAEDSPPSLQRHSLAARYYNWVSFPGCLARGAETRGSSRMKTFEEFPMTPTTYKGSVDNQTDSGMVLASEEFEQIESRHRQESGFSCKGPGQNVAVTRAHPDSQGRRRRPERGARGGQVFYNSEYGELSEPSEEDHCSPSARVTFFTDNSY
# Protocol: as §1, §2
# EphB2 = target: T2, EphB2 (Homo sapiens, UniProt P29323); test: TR-FRET kinase assay, EphB2
# T2 sequence (P29323 19-1055): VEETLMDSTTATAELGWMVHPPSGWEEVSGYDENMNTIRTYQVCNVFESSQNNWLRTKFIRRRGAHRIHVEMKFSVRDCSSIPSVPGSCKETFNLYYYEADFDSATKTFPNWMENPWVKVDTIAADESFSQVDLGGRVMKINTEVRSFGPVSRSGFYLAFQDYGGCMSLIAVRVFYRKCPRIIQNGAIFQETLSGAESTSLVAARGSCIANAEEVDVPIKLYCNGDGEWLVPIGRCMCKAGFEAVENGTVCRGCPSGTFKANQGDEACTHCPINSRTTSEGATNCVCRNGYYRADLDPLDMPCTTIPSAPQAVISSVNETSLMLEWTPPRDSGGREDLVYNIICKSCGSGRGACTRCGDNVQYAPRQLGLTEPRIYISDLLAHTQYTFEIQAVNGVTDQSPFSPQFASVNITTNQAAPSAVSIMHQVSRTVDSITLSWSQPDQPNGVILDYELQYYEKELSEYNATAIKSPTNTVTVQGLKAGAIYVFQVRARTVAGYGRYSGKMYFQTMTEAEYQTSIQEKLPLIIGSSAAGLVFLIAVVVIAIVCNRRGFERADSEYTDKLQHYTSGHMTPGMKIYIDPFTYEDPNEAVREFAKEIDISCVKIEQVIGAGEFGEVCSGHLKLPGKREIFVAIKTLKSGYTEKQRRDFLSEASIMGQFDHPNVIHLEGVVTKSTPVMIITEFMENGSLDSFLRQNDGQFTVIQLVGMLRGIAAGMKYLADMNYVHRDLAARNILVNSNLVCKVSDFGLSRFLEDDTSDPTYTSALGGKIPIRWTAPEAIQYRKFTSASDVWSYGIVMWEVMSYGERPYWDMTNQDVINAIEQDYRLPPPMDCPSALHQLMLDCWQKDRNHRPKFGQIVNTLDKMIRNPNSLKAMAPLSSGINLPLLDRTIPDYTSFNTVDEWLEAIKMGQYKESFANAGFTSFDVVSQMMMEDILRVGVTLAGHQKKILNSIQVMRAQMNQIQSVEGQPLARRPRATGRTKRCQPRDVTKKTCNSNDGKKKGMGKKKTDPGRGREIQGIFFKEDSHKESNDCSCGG
# Protocol: as §1, §2
sequence,measurement,setting,value
C AYE AYE AYE K EYA EYA EYA K AYA EYE R (CAYEAYEAYEKEYAEYAEYAKAYAEYER; tyrosine kinase substrate peptide) [BRB1],Signal to Noise ratio with BRB1 Peptide,EphA8,32.3
same,Signal to Noise ratio with BRB1 Peptide,FLT4,20.0
same,Signal to Noise ratio with BRB1 Peptide,EphB2,28.8
